Concentration giving complete inhibition of cell adhesion and IC50 data for two substances are collected here from patent US20250295731A1.

Experiment [1] addresses α9β1 integrin (UniProt Q13797). Briefly: inhibition of α9LN18 cell adhesion to immobilized F9 fraction.
In experiment [2] the target is α9β1 integrin (UniProt Q13797). The experiment is described as follows: inhibition of α9LN18 cell adhesion to immobilized recombinant VCAM-1.
Experiment [3] concerns the target α9β1 integrin (UniProt Q13797). The experiment is described as follows: inhibition of α9+ cell adhesion to immobilized VCAM-1.
The target in experiment [4] is α9β1 integrin (UniProt Q13797). The experiment is described as follows: inhibition of α9+ cell adhesion to immobilized Fraction 9-4.

Sequence of UniProt Q13797 (Q13797 30-1035, chain 1 of 2): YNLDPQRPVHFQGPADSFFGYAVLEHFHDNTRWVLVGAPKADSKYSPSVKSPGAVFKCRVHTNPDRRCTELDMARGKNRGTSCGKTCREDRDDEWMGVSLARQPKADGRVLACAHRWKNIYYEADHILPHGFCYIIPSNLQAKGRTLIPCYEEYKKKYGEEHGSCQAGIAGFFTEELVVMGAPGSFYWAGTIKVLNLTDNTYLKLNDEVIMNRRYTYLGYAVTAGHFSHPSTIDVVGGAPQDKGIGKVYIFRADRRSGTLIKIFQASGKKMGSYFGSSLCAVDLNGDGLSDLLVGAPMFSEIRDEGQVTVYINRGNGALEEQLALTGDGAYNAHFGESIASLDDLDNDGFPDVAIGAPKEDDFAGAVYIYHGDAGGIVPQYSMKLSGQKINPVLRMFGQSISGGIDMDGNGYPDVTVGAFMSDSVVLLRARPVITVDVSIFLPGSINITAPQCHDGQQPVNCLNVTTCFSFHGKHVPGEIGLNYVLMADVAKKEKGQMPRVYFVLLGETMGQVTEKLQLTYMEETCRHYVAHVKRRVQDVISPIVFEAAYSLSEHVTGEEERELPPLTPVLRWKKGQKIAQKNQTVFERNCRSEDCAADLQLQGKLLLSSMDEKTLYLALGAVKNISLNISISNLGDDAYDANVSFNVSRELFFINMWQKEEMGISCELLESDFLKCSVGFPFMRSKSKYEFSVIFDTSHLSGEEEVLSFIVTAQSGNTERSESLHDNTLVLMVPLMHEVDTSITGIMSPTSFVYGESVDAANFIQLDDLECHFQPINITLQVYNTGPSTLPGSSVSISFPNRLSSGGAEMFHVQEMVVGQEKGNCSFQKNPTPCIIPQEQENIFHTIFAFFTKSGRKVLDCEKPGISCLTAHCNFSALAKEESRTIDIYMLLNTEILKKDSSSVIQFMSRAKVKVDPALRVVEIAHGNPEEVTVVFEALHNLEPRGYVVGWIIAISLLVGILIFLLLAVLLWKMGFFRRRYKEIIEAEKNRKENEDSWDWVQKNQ
Sequence of UniProt Q13797 (P05556 21-798, chain 2 of 2, further chain): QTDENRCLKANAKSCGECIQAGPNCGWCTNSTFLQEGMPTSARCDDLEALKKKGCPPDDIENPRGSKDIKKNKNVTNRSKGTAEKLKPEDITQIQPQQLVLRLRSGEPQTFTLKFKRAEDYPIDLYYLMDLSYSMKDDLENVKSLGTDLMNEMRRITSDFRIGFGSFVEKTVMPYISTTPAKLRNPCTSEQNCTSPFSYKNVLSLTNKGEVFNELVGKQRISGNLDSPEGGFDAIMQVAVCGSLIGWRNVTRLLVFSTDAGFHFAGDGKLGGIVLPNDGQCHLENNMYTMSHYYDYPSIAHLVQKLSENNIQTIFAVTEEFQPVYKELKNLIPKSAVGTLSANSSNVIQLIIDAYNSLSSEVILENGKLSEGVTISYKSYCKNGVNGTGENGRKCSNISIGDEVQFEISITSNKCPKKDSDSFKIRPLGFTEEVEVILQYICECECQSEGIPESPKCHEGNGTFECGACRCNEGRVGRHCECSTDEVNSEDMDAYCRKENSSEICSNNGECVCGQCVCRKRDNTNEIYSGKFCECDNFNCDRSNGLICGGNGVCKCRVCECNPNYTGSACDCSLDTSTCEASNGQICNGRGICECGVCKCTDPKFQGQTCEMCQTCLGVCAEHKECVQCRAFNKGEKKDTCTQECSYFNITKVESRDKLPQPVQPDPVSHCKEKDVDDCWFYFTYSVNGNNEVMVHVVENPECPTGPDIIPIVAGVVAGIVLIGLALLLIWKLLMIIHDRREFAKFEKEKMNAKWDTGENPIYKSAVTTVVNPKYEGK
Sequence of VLO5, snake venom MLD-disintegrin (P0C6A9 whole entry): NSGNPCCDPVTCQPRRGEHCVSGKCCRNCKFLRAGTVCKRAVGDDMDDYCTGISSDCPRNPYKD
Sequence of VLO5, snake venom MLD-disintegrin (P0C6B0 whole entry, further chain): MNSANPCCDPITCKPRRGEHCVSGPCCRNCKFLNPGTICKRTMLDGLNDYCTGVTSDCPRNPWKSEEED

Take CS-1 peptide EILDVPST: the concentration giving complete inhibition of cell adhesion with α9β1 integrin [1] and with α9β1 integrin [2] was 500 µM in each case.

One may read the IC50 as the midpoint of a concentration-inhibition curve. For VLO5, snake venom MLD-disintegrin, the values for the concentration for half-maximal inhibition (IC50) with α9β1 integrin [3] and in the experiment with α9β1 integrin [4] were 3.2 nM and 5.6 nM, respectively.
